Assay results from article doi:10.1101/2024.07.08.601072.

Biological target: H2A-H2B dimers (yeast) (yeast) (UniProt P04911)
Assay: native gel or EMSA

Kd: 160 to 330 nM
Substance: Purified Tom1p (Tom1p-Protein A after Protein A removal) (from UniProt Q03280 1-3268) (enzyme)
